T1: Vaccinia virus A56 antigen (Wyeth VV sequence) expressed on HEK cells (Vaccinia virus, Wyeth strain, UniProt P20978 17-315)
T1 construct: also called HEK-A56; HEK-A56 (GFP)
T1 chain: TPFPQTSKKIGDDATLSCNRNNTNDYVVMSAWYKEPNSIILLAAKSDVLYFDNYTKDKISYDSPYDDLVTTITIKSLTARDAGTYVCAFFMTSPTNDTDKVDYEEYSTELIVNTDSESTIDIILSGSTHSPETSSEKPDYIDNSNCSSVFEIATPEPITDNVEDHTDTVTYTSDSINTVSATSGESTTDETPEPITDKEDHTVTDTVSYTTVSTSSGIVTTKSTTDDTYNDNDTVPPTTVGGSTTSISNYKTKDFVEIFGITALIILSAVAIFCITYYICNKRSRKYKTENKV

T2: A56.hFc (Vaccinia virus, Wyeth strain, UniProt P20978 17-279)
T2 construct: also called A56 human Fc fusion protein; A56 protein
T2 chain: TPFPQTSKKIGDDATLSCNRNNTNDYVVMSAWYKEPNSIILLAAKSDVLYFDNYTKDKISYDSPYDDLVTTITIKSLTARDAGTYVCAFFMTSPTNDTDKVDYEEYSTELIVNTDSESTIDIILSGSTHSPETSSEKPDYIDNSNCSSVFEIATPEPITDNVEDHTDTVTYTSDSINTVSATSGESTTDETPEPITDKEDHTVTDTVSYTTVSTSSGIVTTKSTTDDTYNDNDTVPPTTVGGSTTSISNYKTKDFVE


How the values were obtained:
[1] = target: T3, Vaccinia virus A56 antigen, Western Reserve strain VVdd (eGFP) (Vaccinia virus, Western Reserve strain, UniProt Q01218 17-314)
[2] = target: T1, Vaccinia virus A56 antigen (Wyeth VV …); experiment: flow cytometry on HEK-A56 (GFP) cells
A56.hFc [3] = target: T2, A56.hFc; experiment: SPR Biacore T200, antibody amine-coupled, […]
[4] = target: T4, Vaccinia virus B5 antigen (Wyeth VV sequence) expressed on HEK cells (Vaccinia virus, Wyeth strain, UniProt O57254 18-317); experiment: flow cytometry on HEK-B5 (GFP) cells (panel 'HEKB5')
T4 construct: also called HEK-B5; HEK-B5 (GFP)

A56.hFc [5] = target: T2, A56.hFc; experiment: SPR Biacore T200, antibody amine-coupled, A56.hFc as analyte, 1:1 Langmuir fit
[6] = target: T3, Vaccinia virus A56 antigen, Western …; experiment: flow cytometry on VVdd (eGFP)-infected A549 cells
[7] = target: T4, Vaccinia virus B5 antigen (Wyeth VV …); experiment: immunohistochemistry (DAB) on histogel sections of HEK-B5 cells
[8] = target: T3, Vaccinia virus A56 antigen, Western …; experiment: ELISA on plate-coated VVdd (eGFP) virus particles, HRP anti-hIgG Fc, lower panel
[9] = target: T5, Vaccinia virus B5 antigen, Western Reserve strain VVdd (eGFP) (Vaccinia virus, Western Reserve strain, UniProt Q01227 18-317); experiment: flow cytometry on VVdd (eGFP)-infected A549 cells
T5 construct: also called B5 on VVdd (eGFP)-infected cells

[10] = target: T1, Vaccinia virus A56 antigen (Wyeth VV …); experiment: immunohistochemistry (DAB) on histogel sections of HEK-A56 cells
[11] = target: T5, Vaccinia virus B5 antigen, Western …; experiment: flow cytometry on VVdd (eGFP)-infected A549 cells; remark: listed apart in the source
[12] = target: T5, Vaccinia virus B5 antigen, Western …; experiment: flow cytometry on VVdd (eGFP)-infected HT29 cells
B5.hFc [13] = target: T6, B5.hFc (Vaccinia virus, Wyeth strain, UniProt O57254 18-279); experiment: SPR Biacore T200, antibody amine-coupled, […]
T6 construct: also called B5.hFc soluble antigen; B5 human Fc fusion protein

B5.hFc [14] = target: T6, B5.hFc; experiment: SPR Biacore T200, antibody amine-coupled, B5.hFc as analyte, 1:1 Langmuir fit
[15] = target: T4, Vaccinia virus B5 antigen (Wyeth VV …); experiment: flow cytometry on HEK-B5 (GFP) cells
[16] = target: T5, Vaccinia virus B5 antigen, Western …; experiment: ELISA on plate-coated VVdd (eGFP) virus particles, HRP anti-hIgG Fc, upper panel

Row | Binder | binding result [2] | Kd (A56.hFc [3]) | binding result [4] | koff (A56.hFc [5]) | kon (A56.hFc [5]) | EC50 [6] | EC50 [9] | also measured
1 | A054 (antibody, V domains shown, also called A054 (A56); anti-A56 rabbit antibody A054 hIgG1) VH: QEQVVESGGGLVKPGASLTLTCTASGFTLSSSYWICWVRQAPGKGPEWIACTYNGDGSTHYASWAKGRFTISKSSSTTVTLQMTSLTAADTATYFCARDYTDAFYTYGFNLWGPGTLVTVSS VL: DIVMTQTPASVSEPVGGTVTIKCQASQSTSSYLAWYQQKPGQPPKLLIYRASSLASGVPSRFKGSGSATEFTLTISDLECADAATYYCQTGFYGSSGHTFGGGTEVVVK | binds | 15.3 nM | no binding (tested: about 330 nM) | 0.0141 s⁻¹ | 925000 M⁻¹ s⁻¹ | – | – | EC50 (read off the curve) [1]: ~5 nM
2 | A059 (antibody, V domains shown, also called A059 anti-A56, Rb/Mu IgG2a; A049/A059/A056) VH: QSLEESGGDLVKPGASLTLTCTASGIDFSDIYYISWVRQAPGKGLEWIACTYAGSSGSTYYATWAKGRFTISKASSTTVTLQMTSLTAADTATYFCARDRYPGTSGRVYGMDLWGPGTLVTVSS VL: VVMTQTPSSVSEPVGGTVTIKCQASQSISDLLSWYQQKPGQPPKLLIYSASTLASGVSSRFKGSGSGTEFTLTISDLECADAATYYCQCNYYSPTYGNGFGGGTEVVVK | – | – | – | – | – | 5 nM | – | binding result [7]: no binding (tested: 10 ug/mL)
3 | A056 (antibody, V domains shown, also called A056 anti-A56, Rb IgG; anti-A56-PE (A056, Rb IgG)) VH: QSLEESGGDLVKPGASLTLTCTASGIDFSDIYYISWVRQAPGKGLEWIACTYAGSSGSTYYATWAKGRFTISKASSTTVTLQMTSLTAADTATYFCARDRYPGTSGRVYGMDLWGPGTLVTVSS VL: VVMTQTPSSVSEPVGGTVTIKCQASQSISDLLSWYQQKPGQPPKLLIYSASTLASGVSSRFKGSGSGTEFTLTISDLECADAATYYCQCNYYSPTYGNGFGGGTEVVVK | – | – | – | – | – | 16 nM | – | binding result [7]: no binding (tested: 10 ug/mL)
4 | A049 (antibody, V domains shown, also called A049 (A56); A049 anti-A56 hIgG1) VH: QSLEESGGDLVKPGASLTLTCTASGIDFSDIYYISWVRQAPGKGLEWIACTYAGSSGSTYYATWAKGRFTISKASSTTVTLQMTSLTAADTATYFCARDRYPGTSGRVYGMDLWGPGTLVTVSS VL: VVMTQTPSSVSEPVGGTVTIKCQASQSISDLLSWYQQKPGQPPKLLIYSASTLASGVSSRFKGSGSGTEFTLTISDLECADAATYYCQCNYYSPTYGNGFGGGTEVVVK | – | ≤ 0.1 nM | – | 2.27e-05 s⁻¹ | 395000 M⁻¹ s⁻¹ | 14 nM | – | –
5 | A047 (antibody, V domains shown, also called A047 (A56); anti-A56 rabbit antibody A047 hIgG1) VH: QEQLEESGGDLVKPEGSLTLTCTASGFSFSSSYWICWVRQAPGKGLEWIACIYAGSGGSTYYATWAKGRFTISKTSSTTVTLQMTSLTAADTASYFCVRAYSDRSGGYSFNLWGPGTLVTVSS VL: QVLTQTASPVSAAVGGTVTINCQASQSVDNNNYLAWYQQKPGQPPKQLIYSASSLASGVPSRFKGSGSGTQFTLTISDVQCDDAATYYCLGSYDCSDADCYAFGGGTEVVVK | binds | 2.34 nM | no binding (tested: about 330 nM) | 4.5e-05 s⁻¹ | 19200 M⁻¹ s⁻¹ | – | – | binding result [8]: binds
6 | A050 (antibody, V domains shown, also called A050 (A56); anti-A56 rabbit antibody A050 hIgG1) VH: QSLEESGGDLVKPGASLTLTCTASGFSFSSSYWLCWARQAPGKGPEWIACIYNGDGSTHYASWAKGRFTISKSSSTTVTLQMTSLTAADTATYFCARDYTYNFYTYGFNLWGPGTLVTVSS VL: FELTQTPSSVEAAVGGTVTINCQASQSVNIWASWYQQKPGQPPKLLIYKASTLASGVPSRFKGSGSGTEFTLTISDLECADAATYYCQGGYPSSSSGWAFGGGTEVVVK | binds | 0.507 nM | no binding (tested: about 330 nM) | 5.07e-05 s⁻¹ | 99800 M⁻¹ s⁻¹ | – | – | binding result [8]: binds
7 | A073 (antibody, V domains shown, also called A073 anti-B5, Rb IgG; anti-B5-PE (A073, Rb IgG)) VH: QEQLEESGGGLVKPEGSLTLTCTASGFSFSSSYYMCWVRQAPGRGLEWIACIYTSSGSAYYANWAKGRFTISRTSSTTVTLQMTRLTAADTATYFCVRNAVGSSYYLYLWGPGTLVTVSS VL: QVLTQTPSPVSAAVGGTVTISCQASQSVAGNNYLSWYQQKPGQPPNLLIYSVSTLASGVPSRFKGSGSGTQFTLTISDLECDDAATYYCQGYYNDGIWAFGGGTEVVVK | – | – | – | – | – | – | 3 nM | binding result [10]: no binding (tested: 10 ug/mL)
8 | A048 (antibody, V domains shown, also called anti-B5 A048 hIgG1) VH: QEQLEESGGGLVKPEGSLTLTCTASGFSFSSSYYMCWVRQAPGRGLEWIACIYTSSGSAYYANWAKGRFTISRTSSTTVTLQMTRLTAADTATYFCVRNAVGSSYYLYLWGPGTLVTVSS VL: QVLTQTPSPVSAAVGGTVTISCQASQSVAGNNYLSWYQQKPGQPPNLLIYSVSTLASGVPSRFKGSGSGTQFTLTISDLECDDAATYYCQGYYNDGIWAFGGGTEVVVK | – | – | – | – | – | – | 9 nM | EC50 [11]: 6 nM; EC50 [12]: 1.1 nM; Kd (B5.hFc [13]): 0.745 nM; koff (B5.hFc [14]): 2.21e-05 s⁻¹; kon (B5.hFc [14]): 29700 M⁻¹ s⁻¹
9 | A058 (antibody, V domains shown, also called A058 anti-B5, Rb/Mu IgG2a; A048/A058/A073) VH: QEQLEESGGGLVKPEGSLTLTCTASGFSFSSSYYMCWVRQAPGRGLEWIACIYTSSGSAYYANWAKGRFTISRTSSTTVTLQMTRLTAADTATYFCVRNAVGSSYYLYLWGPGTLVTVSS VL: QVLTQTPSPVSAAVGGTVTISCQASQSVAGNNYLSWYQQKPGQPPNLLIYSVSTLASGVPSRFKGSGSGTQFTLTISDLECDDAATYYCQGYYNDGIWAFGGGTEVVVK | – | – | – | – | – | – | 3 nM | binding result [10]: no binding (tested: 10 ug/mL)
10 | A051 (antibody, V domains shown, also called anti-B5 rabbit antibody A051 hIgG1) VH: QEQVEESGGGLAKPGASLTLTCEASGFTLSSYWMCWVRQAPGKGLEWIACIYGGSSGSTYYSNWAKGRFTISKTSSTTVTLQMTSLTAADTATYFCARDGSTWDYFRLWGPGTLVTVSS VL: YDMTQTPSSVEAAVGGTVTIKCQASQSINTNYLSWYQQKPGQPPKLLIYQASTLESGVPSRFKGSGSGTEYTLTISDLECADAATYYCQGYYTVENIGNPFGGGTEVVVK | – | – | – | – | – | – | – | binding result [15]: binds; binding result [16]: binds

Reference: patent publication US20230027475A1 (ADMARE THERAPEUTICS SOCIETY, published 2023)
